From patent US20130078263A1

Target: HLA-DR on human peripheral blood mononuclear cells (human)
Assay: cell-based or functional assay

frequency of CD3+ class II-DR+ cells, IMMU-114-treated MLR, representative result: 4%
frequency of CD3+ class II-DR+ cells, IMMU-114-treated resting PBMCs, representative result: 0.5%
frequency of CD11c+ class II-DR+ cells, IMMU-114-treated MLR, representative result: 2.3%
frequency of CD11c+ class II-DR+ cells, IMMU-114-treated resting PBMCs, representative result: 0.4%
frequency of CD14+ class II-DR+ cells, IMMU-114-treated MLR, representative result: 2.2%
frequency of CD14+ class II-DR+ cells, IMMU-114-treated resting PBMCs, representative result: 0.5%
reduction of live mDC1 in human PBMCs after 3 days with 5 µg/ml antibody (flow cytometry): 59.2%
reduction of live mDC2 in human PBMCs after 3 days with 5 µg/ml antibody (flow cytometry): 85%
reduction of pDCs in human PBMCs (flow cytometry): 50%
B1: IMMU-114 (antibody, from a related filing, IgG4, V domains shown)
VH: QVQLQQSGSELKKPGASVKVSCKASGFTFTNYGMNWVKQAPGQGLKWMGWINTYTREPTYADDFKGRFAFSLDTSVSTAYLQISSLKADDTAVYFCARDITAVVPTGFDYWGQGSLVTVSS
VL: DIQLTQSPSSLSASVGDRVTITCRASENIYSNLAWYRQKPGKAPKLLVFAASNLADGVPSRFSGSGSGTDYTFTISSLQPEDIATYYCQHFWTTPWAFGGGTKLQIKR
